Experimental findings from publication PMC7988105, “Canonical versus non-canonical transsynaptic signaling of neuroligin 3 tunes development of sociality in mice” (Nature Communications, 2021) are described below.

The term stoichiometry N denotes a count of units in the complex or per binding partner. For orientation: Kd means the free concentration of one partner at which half of the binding sites on the other are occupied at equilibrium, for simple one-to-one binding. A high value points to a looser complex.

First the molecules themselves.
B1: mouse NLGN3 ECD (residues 35–684) with C-terminal His6 tag (domain or fragment, UniProt Q8BYM5 35-684, looked up)
chain: QAPAPTVNTHFGKLRGARVPLPSEILGPVDQYLGVPYAAPPIGEKRFLPPEPPPSWSGIRNATHFPPVCPQNIHTAVPEVMLPVWFTANLDIVATYIQEPNEDCLYLNVYVPTEDGSGAKKQGEDLADNDGDEDEDIRDSGAKPVMVYIHGGSYMEGTGNMIDGSVLASYGNVIVITLNYRVGVLGFLSTGDQAAKGNYGLLDQIQALRWVSENIAFFGGDPRRITVFGSGIGASCVSLLTLSHHSEGLFQRAIIQSGSALSSWAVNYQPVKYTSLLADKVGCNVLDTVDMVDCLRQKSAKELVEQDIQPARYHVAFGPVIDGDVIPDDPEILMEQGEFLNYDIMLGVNQGEGLKFVEGVVDPEDGVSGTDFDYSVSNFVDNLYGYPEGKDTLRETIKFMYTDWADRDNPETRRKTLVALFTDHQWVEPSVVTADLHARYGSPTYFYAFYHHCQSLMKPAWSDAAHGDEVPYVFGVPMVGPTDLFPCNFSKNDVMLSAVVMTYWTNFAKTGDPNKPVPQDTKFIHTKANRFEEVAWSKYNPRDQLYLHIGLKPRVRDHYRATKVAFWKHLVPHLYNLHDMFHYTSTTTKVPPPDTTHSSHITRRPNGKTWSTKRPAISPAYSNENAPGSWNGDQDAGPLLVENPRDYSTE
notes: mouse neuroligin 3, NLGN3A isoform, extracellular domain; Dimer by SEC-MALS and in both crystals; also called apo-NLGN3 ECD; wild-type NLGN3; not shown: His6, C-terminal, kept
B2: NRXN1β (lacking SS4) used for ITC (domain or fragment)
chain: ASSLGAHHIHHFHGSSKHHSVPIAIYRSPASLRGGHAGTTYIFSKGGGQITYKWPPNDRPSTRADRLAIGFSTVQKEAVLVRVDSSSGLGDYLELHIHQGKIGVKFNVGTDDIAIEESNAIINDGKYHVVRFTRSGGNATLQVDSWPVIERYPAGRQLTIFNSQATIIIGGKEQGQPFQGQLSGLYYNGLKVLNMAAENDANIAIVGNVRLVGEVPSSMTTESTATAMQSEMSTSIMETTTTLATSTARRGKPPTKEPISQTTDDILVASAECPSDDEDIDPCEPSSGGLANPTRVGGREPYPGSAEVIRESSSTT

Data set [1] concerns the molecule itself. The experiment in a line: SEC-MALS; NLGN3 ECD wild-type at 1.5 g/L or R/C mutant at 1.1 g/L on ENrich SEC 650, 20 mM Tris-HCl pH 7.5, 150 mM NaCl. In general terms: SEC sorts molecules by how far they enter the pores of the column.
Data set [2] deals with T1, NLGN3 ECD MF/IS mutant (M614I F615S) with His6 tag (mouse, UniProt Q8BYM5 35-684, M614I | F615S).
T1 construct: mouse neuroligin 3, NLGN3A isoform, extracellular domain (gene for residues 1–684 expressed and secreted), mutated; also called NLGN3-MF/IS; not shown: His6, C-terminal, kept
The experiment in a line: ITC; NLGN3 ECD (20 µM) in the cell, NRXN1β (200 µM) injected; 20 mM Tris-HCl pH 8.0, 150 mM NaCl, 1 mM CaCl2, 25 °C; one-site model. As to conditions: both partners purified.

For data set [3], the target named is B1. The data set is described as above. As to conditions: both partners purified.

In the case of B1, the “stoichiometry N” value in data set [1] worked out at 2.
B2: the Kd in data set [2] amounted to 2300 nM; in data set [3], 1800 nM.
